The values below come from the nanobody polyreactivity screen of Harvey et al. (2022).

A short description of this series: yeast display, Sf9 membrane polyspecificity reagent, FACS + sequencing; frameworks hold sequencing errors. In a few lines: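 Galactose induction of a Saccharomyces cerevisiae BJ5465 synthetic nanobody display library ran 36–48 hours. The cells were then stained for 1 hour at 4 °C with 10% biotinylated, detergent-solubilized Sf9 membrane reagent, pulled down on streptavidin microbeads and FACS-sorted into low and high (top ~1%) gates on expression and reagent-binding fluorescence. Labels for polyreactivity follow the gate of origin.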
Turning to “QVQLVESGGGLVQAGGSLRLSCAASGRIFLLNAMGWYRQAPGKERELVARISSGRTYYADSVKGRFTISRDNAKNTVFLQMISLKPEDTAVYYCNATVSSSKFRYFYVNPYDYWGQGTQVTVSS”, the “polyreactivity (PSR sort gate)” value is listed as “low polyreactivity”. “QVQLVESGGGLVQAGGSLRLSCAASGRIFLNYDMGWYRQAPGKERELVADISISGSTDYADSVKGRFTISRDNAKNTVYLQMNSLKPEDTAVYYCATSFYVSDYYVPYEMGYWGQGTQVTVSS”: the “polyreactivity (PSR sort gate)” value is reported as “low polyreactivity”. In the case of “QVQLVESGGGLVQAGGSLRLSCAASGRIFLQNAMGWYRQAPWKERELVASISSSGGTTYYADSVKGRFTISRDNAKNTVYLQMNSLKPEDTAVYYCAADYGHYSTPMDYWGQGTQVTVSS” it was “low polyreactivity”; in that of “QVQLVESGGGLVQAGGSLRLSCAASGRIFLRNAMGWYRQAPGKERELVATITSRGGSTYYADSVRGRFTISRDNAKNTVYLQMNSLKPEDTAVYYCAAKVAWGHWRGYDYWGQGTQVTVSS”, “low polyreactivity”; in that of “QVQLVESGGGLVQAGGSLRLSCAASGRIFLSNAMGWYIQAPGKEREFVAAISWRGGSTYYADSVKGRFTISRDNAKNTVYLQMNSLKPEDTAVYYCAVDVRYYYGRSYDYWGQGTQVTVSS”, “high polyreactivity”.

As for “QVQLVESGGGLVQAGGSLRLSCAASGRIFLSYAMGVYRQAPGKERELVAGITGTGGRTYYADSVKGRFTISRDNAKNTVYLLMNSLIPEDTAVSYCAAQRRDNIDPKHYYWGQGTQVTVSS”, the “polyreactivity (PSR sort gate)” value was “low polyreactivity”. Consider “QVQLVESGGGLVQAGGSLRLSCAASGRIFLSYTMGWYRQAPGKERELVAAITSGGSTYYADSVKGRFTISRDNAKNTVYLQMNSLKPEDTAVYYCATDYGYSWYDYWGQGTQVTVSS”, for which the “polyreactivity (PSR sort gate)” value is recorded as “low polyreactivity”. Then “QVQLVESGGGLVQAGGSLRLSCAASGRIFLTNTMGWYRQAPGKERELVAGISRGGRTYYADSVKGRFTISRDNAKNTVYLQMNSLKPEDTAVYYCNARLRHSQYAYYYWGQGTQVTVSS”, with “high polyreactivity”; and “QVQLVESGGGLVQAGGSLRLSCAASGRIFLVNTMGWYRQAPGKERELVATITFSVVRTYYADSVKGRFTISRDNAKNSVYLQMNSLKPEVTAVYYCAKQHLVSVPEMYYWGQGTQVTVSS”, with “low polyreactivity”; and “QVQLVESGGGLVQAGGSLRLSCAASGRIFLVYAMGWYRQAPGKERELVAAITKRGGSTYYADSVKGRFTISRDNAKNTVYLQMNSLKPEDTAVYYCAADGYTRGYDYWGQGTQVTVSS”, with “high polyreactivity”. Regarding “QVQLVESGGGLVQAGGSLRLSCAASGRIFLYAMGWYRQAPGKERELVAAINRGGSTYYADSVKGRFTISRDNAKNTVYLEMNSLKPEDTAVYYCAAKRLTCRQHDYWGQGTQVTVSS”, the “polyreactivity (PSR sort gate)” value is on record as “high polyreactivity”. Then “QVQLVESGGGLVQAGGSLRLSCAASGRIFLYYAMGWYRQAPGKERELVAAISRRGASTYYADSVKGRFTISRDNAKNTVYLQMNSLKPEDTAVYYCATVPGKSGDYWGQGTQVTVSS”, with “high polyreactivity”; and “QVQLVESGGGLVQAGGSLRLSCAASGRIFLYYAMGWYRQAPGKERELVAAITWSGGSTYYADSVKGRFTISRDNAKNTVYLQMNSLKPEDTAVYYCAADYLYGQTIYQVPSHYYYWGQGTQVTVSS”, with “low polyreactivity”; and “QVQLVESGGGLVQAGGSLRLSCAASGRIFLYYNMGWYRQAPGKERELVADITWRGGSTYYADSVKGRFTISRDNAKNTVYLQMNSLKPEDTAVYYCNAVSVSSKRSDYWGQGTQVTVSS”, with “low polyreactivity”. Take “QVQLVESGGGLVQAGGSLRLSCAASGRIFNGNALGWYRQAPGNERELVAAISSGGRTYYADSVKGRFTISRDNAKNTVYLQMNSLKPEDTAVYYCNARGYSGRVIPEYYYWGQGTQVTVSS”: the “polyreactivity (PSR sort gate)” value was “high polyreactivity”. Then “QVQLVESGGGLVQAGGSLRLSCAASGRIFNGNAMGWYRQAPGKESELVAAISTSGGRTYYADSVKGRFTISRDNAKNTVYLQMNSLKPEDTAVYYCAARYFRRDYIDYDLWGQGTQVTVSS”, with “low polyreactivity”.

Regarding “QVQLVESGGGLVQAGGSLRLSCAASGRIFNGYAMGWYRQAPGKERELVAAISKSGTRTYYADSVKGRFTISRDNAKNTVYLQMTSLKPEDTAVYYCNARVYRYDTYNEYYYWGQGTQVTVSS”, the “polyreactivity (PSR sort gate)” value is recorded as “high polyreactivity”. Then “QVQLVESGGGLVQAGGSLRLSCAASGRIFNIYAMGWYRQAPGKERELVAAIRWNGGSTYYADSVKGRFTISRDNAKYTVYLQMYSLKPEDSAVYYCAAARRRRFYDYYNAWYDVDYWGQGTQVSVSS”, with “low polyreactivity”. In the case of “QVQLVESGGGLVQAGGSLRLSCAASGRIFNKNAMGWYRQAPGKERELVAAISWSGTSTYYADSVKGRFTISRDTAKNTVYLQMHSLKPEDTAVYYCAAADFYYTGADDYWGQGTQVTVSS” it was “high polyreactivity”; in that of “QVQLVESGGGLVQAGGSLRLSCAASGRIFNKNAMGWYRQAPGKERELVAAITYSGGSTYYADSVKGRFTISRDNAKNTVYLQMNSLKPEDTAVYYSARDLYYVYSFAPYRYEYWGQGTQVTVSS”, “low polyreactivity”. Turning to “QVQLVESGGGLVQAGGSLRLSCAASGRIFNPNAMGWYRQAPGKERELVAAITSGDSTNYADSVKGRFTISRDNAKNTVYLQMNSLKPEDTAVYYCAAGPSKRPPWLRQGGYDYWGQGTQVTVSS”, the “polyreactivity (PSR sort gate)” value is “low polyreactivity”.

Regarding “QVQLVESGGGLVQAGGSLRLSCAASGRIFNPYAMGWYRQAPWKERELVAAIRRSGVDTYYADSVKGRFTNSRDNAKNTVYFQMNSLKPEDTAVYYCNAVYKRIGYSEFDYWGQGTQVTVSS”, the “polyreactivity (PSR sort gate)” value is on record as “low polyreactivity”. Then “QVQLVESGGGLVQAGGSLRLSCAASGRIFNQYGMGWYRQAPGKERELVAAIRSGDSTNYADSVKGRFTISRDNAKNTVYLQMNSLKPEDTAVYYCKAVPSQHDEFDYWGQGTQVTVSS”, with “low polyreactivity”; and “QVQLVESGGGLVQAGGSLRLSCAASGRIFNRYAMGWYRQAPGKERELVASISLSGDSTYYADSVKGRFTISRDNAKNTVYLQMNSLKPEDTAVYYCAVEGLGAAVYAGDRYDYWGQGTQVTVSS”, with “low polyreactivity”; and “QVQLVESGGGLVQAGGSLRLSCAASGRIFNSYGMGWYRHAPGKEREFVAAISRSGGITYYADSVKGRFTISRDNAKNTVYLQMNSLKPEDSAVYYCAADYYWRRQRQVGYWGQGTQVTVSS”, with “high polyreactivity”. Then “QVQLVESGGGLVQAGGSLRLSCAASGRIFNVYAMGWYRQAPGKERELVASITSAGSTYYADSVKGRFTISRDNAKNTVYLQMNSLKPEDTAVYYCAADSYSVYYYTYDSWGQGTQVTVSS”, with “low polyreactivity”; and “QVQLVESGGGLVQAGGSLRLSCAASGRIFNWYAMGWYRKAPGKERELVAAISTDGSTYYADSVKGRFTISRDNAKNTVFLQMNSLKPEDTAVYYCAAVPGYTHLWGGPFDYWGQGTQVTVSS”, with “low polyreactivity”. In the case of “QVQLVESGGGLVQAGGSLRLSCAASGRIFNYYAMGWYRQAPGKERELVAAISARGGSTYYADSVKGRFTISRDNAKNTVYLQMNSLKPEDNAVYYCAKRLYYSYGKYLLGAYYYWGQGTQVTVSS”, the “polyreactivity (PSR sort gate)” value is on record as “high polyreactivity”.

Take “QVQLVESGGGLVQAGGSLRLSCAASGRIFNYYAMGWYRQAPGKERELVAAISARGGSTYYADSVKGRFTISRDNAKNTVYLQMNSLKPEDTAVYYCAVSSGSYGYGYWGQGTQVTVSS”: the “polyreactivity (PSR sort gate)” value is given as “high polyreactivity”.

Regarding “QVQLVESGGGLVQAGGSLRLSCAASGRIFNYYAMGWYRQAPGKERELVATISRNGGRTYYADSVKGRFTISRDNAKNTVYLQMNSLKPEVTAVYYCATDGLYRYDYWGQGTQVTVSS”, the “polyreactivity (PSR sort gate)” value is reported as “high polyreactivity”. With “QVQLVESGGGLVQAGGSLRLSCAASGRIFNYYAMGWYRQAPGKVTEFVASITSRGGTTYYADSVKGRFTISRDNAKNTVYLQMNCLKTEDTAVYFCAAVTRQGSRRSRMNYWGQGTQVTVSS”, the “polyreactivity (PSR sort gate)” value is “high polyreactivity”.

As to “QVQLVESGGGLVQAGGSLRLSCAASGRIFPANAMGWYRQAPGKERELVAAISSSGGSTYYADSVKGRFTISRDNAKNTVYLQMNSLKPEDTAVYYCAKVHYRWPRVTWPNVWWSFEYWGQGTQVTVSS”, the “polyreactivity (PSR sort gate)” value is on record as “low polyreactivity”. Regarding “QVQLVESGGGLVQAGGSLRLSCAASGRIFPAYAMGWYRQAPGKERELVASIRRGGITYADSVKGRFTSSRDNAKNTVYLQMNSLKPEDTAVYYCNADKYGPSAYDYWGQGTQVTVSS”, the “polyreactivity (PSR sort gate)” value was “low polyreactivity”.

On to “QVQLVESGGGLVQAGGSLRLSCAASGRIFPAYAMGWYRQPPGKERELVASIRRGGITYADSVKGRFTISRDNAKNTVYLQMNSLKPEDTAVYYCARPQWRDWYGYWGQGTQVTVSS”, for which the “polyreactivity (PSR sort gate)” value was “low polyreactivity”. Turning to “QVQLVESGGGLVQAGGSLRLSCAASGRIFPAYAMGWYRQSPGKERELVASIRRGGITYADSVKGRFTISRDNAKNTVSLQMTSLNPEDTAVYYCNAHYRGWGYHMDYWGQGTQVTGSS”, the “polyreactivity (PSR sort gate)” value is reported as “low polyreactivity”. Then “QVQLVESGGGLVQAGGSLRLSCAASGRIFPAYVMGWYRQSPGKERELVATIDNGGGTYYADSVKGRFTISRDNAKNTVYLQMNSLKPEDTAVYYCARDRHVRWGLKMDYWGQGTQVTVSS”, with “low polyreactivity”; and “QVQLVESGGGLVQAGGSLRLSCAASGRIFPDNTMGWYRQAPGKERELVAVITYSGGSTYYADSVKGRFTISRDNAKNTVYLQMNSLKPEDTAVYYCARDDATAGDYWGQGTQVTVSS”, with “low polyreactivity”. In the case of “QVQLVESGGGLVQAGGSLRLSCAASGRIFPEYAMGWYRQAPGKERELVAAISSGDNTTYADSVKGRFTISRDNAKNTVYLQMNSLIPEDTAVYYCNAGSCTTGQGGPIIEYGYWGQGTQVTVSS”, the “polyreactivity (PSR sort gate)” value is “low polyreactivity”. Turning to “QVQLVESGGGLVQAGGSLRLSCAASGRIFPFYAMGWYRQAPGKERELVAAITQSGGSTYYADSVKGRFTISRDNAKNTVYLQMNSLKPEDTAVYYCAADYGSFLYGYPTYDYWGQGTQVTVSS”, the “polyreactivity (PSR sort gate)” value was “low polyreactivity”.

For the sequence “QVQLVESGGGLVQAGGSLRLSCAASGRIFPFYDMGWYRQAPGKEREFVARITLSGGSTYYADSVMGRFTISRDNAKNTVNLQMNSLKPEDTSVYYCSADRTSWSVLDFDYWGQGTQVTVSS”, the “polyreactivity (PSR sort gate)” value is recorded as “low polyreactivity”. In the case of “QVQLVESGGGLVQAGGSLRLSCAASGRIFPGNAMGWYRQAPGKEREFVAAINTRGGITYYADSVKGRFTISRDNAKNTVYLQMNSLKPEDTAVYYCNKRWSIRSGYPYTYGIYDYWGQGTQVTVSS” it was “low polyreactivity”.
